From US20250223342A1 (ARGENX, published 2025)
Numbering of substitutions follows the chain as printed. Where two headings read alike, the source gives them in different places.

B1: 11C03 parental fused at the C-terminus of Fc-ABDEG (Fc fusion, not shown: a dimerising Fc or GST; small tags and cut ends)
chain: QLQVVESGGGLVQAGGSLRLSCAASERTFVAYPMGWFRQAPEKEREFVAGISWFAGATTDYADSVEGRFTISRDNAKNTAYLQMNNLKPEDTAVYYCAISHQLPGGRPGRDMDSYSYWGHGTQVTVSS
B2: 11C03 (VHH)
VHH: B1 chain
notes: also called 11C03 parental (VHH)
B3: 11C03-v6 fused at the C-terminus of Fc-ABDEG (Fc fusion, not shown: a dimerising Fc or GST; small tags and cut ends)
chain: B1 chain with G105A
B4: Motavizumab-Fab fragment fused with 2H11 C-terminally to the light chain using a 20GS linker (protein, part only; not given: motavizumab Fab and linker, not shown: another chain or arm of the molecule; small tags and cut ends)
VHH: ELQVVESGGGLVQAGGSLRLSCAASGRTFRSNTMGWFRQAPGKEREFVAAITWSGGTTYYADSVKGRFAISGDNAKNTVYLQMNSLKPEDTAVYYCAAEGPKWEPWNGIYHPADFGSWGQGTQVTVSS
B5: 9F02 (VHH)
VHH: EVQLVESGGGLVQAGGSLRLSCTASRRAFIGYAMGWFRQAPGKEREFVAAISWFAGDTTDYADSVKGRFTISRDNAKNTVYLQMNGLKPEDTAVYVCAASSARPMSGRSDEYHYWGQGTQVTVSS
B6: 9E10 (VHH)
VHH: B5 VHH with E1Q, V2L, L4V, A24T, R26G, D63N, G86S, M105L, G107S
B7: 12G03 (VHH)
VHH: QVQLVESGGGLVQAGGSLRLSCAASERAFSHSNMAWFRQAPGKEREFVAHIHWRGSTTYLDSVKGRFTISRDNAKNTVYLQMNGLRLEDTAVYYCAADSARRILVTVSTSYDYWGQGTQVTVSS

Experiments:
human serum albumin [1] = biological target: T1, human serum albumin (human, UniProt P02768 25-609); assay: SPR (Biacore 8K+, single cycle kinetics), HSA on CM5 chip
T1 construct: also called HSA

human serum albumin [2] = biological target: T1, human serum albumin; assay: SPR (Biacore 8K+, single cycle kinetics), HSA on CM5 chip, HBS-EP+ pH 7.4
human serum albumin [3] = biological target: T1, human serum albumin; assay: SPR (Biacore 8K+, single cycle kinetics), HSA on CM5 chip, citrate buffer pH 5.5
human serum albumin [4] = biological target: T1, human serum albumin; assay: SPR (Biacore 3000), HSA on chip, Fc-ABDEG fusion, pH 5.5
human serum albumin [5] = biological target: T1, human serum albumin; assay: SPR (Biacore 3000), HSA on chip, Fc-ABDEG fusion, pH 7.4
human serum albumin [6] = biological target: T1, human serum albumin; assay: SPR (Biacore 3000), HSA on chip, Fc-ABDEG fusion, pH 5.5; remark: listed apart in the source
human serum albumin [7] = biological target: T1, human serum albumin; assay: SPR (Biacore 3000), HSA on chip, Fc-ABDEG fusion, pH 7.4; remark: listed apart in the source
human serum albumin [8] = biological target: T1, human serum albumin; assay: SPR (Biacore 3000), HSA on chip, Fc-ABDEG fusion, ratio of R0
human serum albumin [9] = biological target: T1, human serum albumin; assay: as above; remark: listed apart in the source
[10] = biological target: T2, cynomolgus monkey serum albumin (cynomolgus monkey, UniProt A2V9Z4 25-608); assay: SPR (Biacore 3000), cyno albumin on chip, Fc-ABDEG fusion, pH 5.5
T2 construct: also called cyno albumin; CSA

[11] = biological target: T2, cynomolgus monkey serum albumin; assay: SPR (Biacore 3000), cyno albumin on chip, Fc-ABDEG fusion, pH 7.4
[12] = biological target: T2, cynomolgus monkey serum albumin; assay: SPR (Biacore 3000), cyno albumin on chip, Fc-ABDEG fusion, ratio of R0
human serum albumin [13] = biological target: T1, human serum albumin; assay: SPR (Biacore), VHH clone, pH 5.5
human serum albumin [14] = biological target: T1, human serum albumin; assay: SPR (Biacore), VHH clone, pH 7.4
human serum albumin [15] = biological target: T1, human serum albumin; assay: SPR (Biacore), off-rate pH 7.4 over pH 5.5
mouse serum albumin = biological target: T3, mouse serum albumin (mouse, UniProt P07724 25-608); assay: species reactivity, screening by ELISA and Biacore
T3 construct: also called MSA; mouse albumin

[16] = biological target: T2, cynomolgus monkey serum albumin; assay: species reactivity, screening by ELISA and Biacore
[17] = biological target: T4, isolated DII of serum albumin (UniProt P02768 211-403, limits assumed); assay: DII binder column of the clone screening
T4 construct: domain: DII

Molecule	Kd (human serum albumin [13]) [nM]	koff (human serum albumin [13]) [s⁻¹]	koff (human serum albumin [14]) [s⁻¹]	Ratio Kd (human serum albumin [15])	binding result (mouse serum albumin)	binding result [16]	other results
Motavizumab-Fab fragment with Alb23 fused C-terminally to the light chain using a 20GS linker	–	–	–	–	–	–	KD ratio (pH 7.4 / pH 5.5) (human serum albumin [1]): 5.28; Kd (human serum albumin [2]): 65 nM; Kd (human serum albumin [3]): 12.3 nM
B1	–	–	–	–	–	–	R0 pH 5.5 (human serum albumin [4]): 177 RU; R0 pH 7.4 (human serum albumin [5]): 42.2 RU; R0 pH 5.5 (human serum albumin [6]): 229 RU; R0 pH 7.4 (human serum albumin [7]): 57 RU; R0 5.5/7.4 (human serum albumin [8]): 4.22; R0 5.5/7.4 (human serum albumin [9]): 4; R0 pH 5.5 [10]: 220 RU; R0 pH 7.4 [11]: 33 RU; R0 5.5/7.4 [12]: 6.7
B2	4.12	0.00051	0.0039	7.7	binds	–	–
B3	–	–	–	–	–	–	R0 pH 5.5 (human serum albumin [4]): 39.3 RU; R0 pH 7.4 (human serum albumin [5]): 12.1 RU; R0 5.5/7.4 (human serum albumin [8]): 3.26
B4	–	–	–	–	–	–	KD ratio (pH 7.4 / pH 5.5) (human serum albumin [1]): 92.6; Kd (human serum albumin [2]): 264 nM; Kd (human serum albumin [3]): 2.85 nM
B5	0.575	7.8e-05	0.00013	1.6	binds	binds	–
B6	15.4	0.00246	0.00412	1.7	binds	binds	–
B7	8.14	0.00126	0.00522	4.1	binds	binds	binding result [17]: no binding
